Test results published in patent US20260116944A1, “NOVEL TRIPLE GLP-1/GIP/GLUCAGON RECEPTOR AGONIST AND A PHARMACEUTICAL COMPOSITION FOR PREVENTING OR TREATING OBESITY COMPRISING THE SAME” (HANMI PHARM. CO., LTD., priority 2022, published 2026).
*1 amine or outer side, *2 acyl side, *3 side chain or, on linkers, in order; H or OH if unused. Bridges are numbered along the chain shown (N, C = ends). Where no end group is shown, it is not given here. Side-chain parts run from the residue outwards. [ ]: non-standard residue; d: D form. The star is where a group is joined. C20 diacid = O=C(O)CCCCCCCCCCCCCCCCCCC(=O)*; C18 diacid = O=C(O)CCCCCCCCCCCCCCCCC(=O)*; γGlu = O=C(O)[C@H](CCC(=O)[*:2])N[*:1]; AEEA = NCCOCCOCC(=O)O; Aib = CC(C)(N)C(=O)O

T1: human GIP receptor (human, UniProt P48546 22-466)
T1 sequence (looked up): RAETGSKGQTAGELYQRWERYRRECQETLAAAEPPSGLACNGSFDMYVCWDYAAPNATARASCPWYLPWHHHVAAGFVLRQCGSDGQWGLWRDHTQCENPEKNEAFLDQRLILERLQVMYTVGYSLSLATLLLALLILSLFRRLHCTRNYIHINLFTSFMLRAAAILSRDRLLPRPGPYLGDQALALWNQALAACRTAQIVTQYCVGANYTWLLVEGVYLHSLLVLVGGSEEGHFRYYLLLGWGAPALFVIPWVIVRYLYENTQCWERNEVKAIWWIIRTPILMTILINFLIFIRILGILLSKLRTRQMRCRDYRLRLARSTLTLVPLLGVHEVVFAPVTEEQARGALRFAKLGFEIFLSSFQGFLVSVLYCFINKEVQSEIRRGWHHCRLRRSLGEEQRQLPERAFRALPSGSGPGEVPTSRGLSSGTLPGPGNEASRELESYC

B1: triple agonist of SEQ ID NO: 8 (peptide)
peptide: Y[Aib]QGTFTSDYSK([AEEA-AEEA-γGlu-C18 diacid])YLDEKRAKEFVQWLLDHHPSSGQPPPS-NH2
modifications: lactam 16-20; N-terminus assumed
SMILES: CC(C)C[C@H](NC(=O)[C@H](Cc1ccc(O)cc1)NC(=O)[C@H](CCCCNC(=O)COCCOCCNC(=O)COCCOCCNC(=O)CC[C@H](NC(=O)CCCCCCCCCCCCCCCCC(=O)O)C(=O)O)NC(=O)[C@H](CO)NC(=O)[C@H](Cc1ccc(O)cc1)NC(=O)[C@H](CC(=O)O)NC(=O)[C@H](CO)NC(=O)[C@@H](NC(=O)[C@H](Cc1ccccc1)NC(=O)[C@@H](NC(=O)CNC(=O)[C@H](CCC(N)=O)NC(=O)C(C)(C)NC(=O)[C@@H](N)Cc1ccc(O)cc1)[C@@H](C)O)[C@@H](C)O)C(=O)N[C@@H](CC(=O)O)C(=O)N[C@H]1CCC(=O)NCCCC[C@@H](C(=O)N[C@@H](CCC(=O)O)C(=O)N[C@@H](Cc2ccccc2)C(=O)N[C@H](C(=O)N[C@@H](CCC(N)=O)C(=O)N[C@@H](Cc2c[nH]c3ccccc23)C(=O)N[C@@H](CC(C)C)C(=O)N[C@@H](CC(C)C)C(=O)N[C@@H](CC(=O)O)C(=O)N[C@@H](Cc2c[nH]cn2)C(=O)N[C@@H](Cc2c[nH]cn2)C(=O)N2CCC[C@H]2C(=O)N[C@@H](CO)C(=O)N[C@@H](CO)C(=O)NCC(=O)N[C@@H](CCC(N)=O)C(=O)N2CCC[C@H]2C(=O)N2CCC[C@H]2C(=O)N2CCC[C@H]2C(=O)N[C@@H](CO)C(N)=O)C(C)C)NC(=O)[C@H](C)NC(=O)[C@H](CCCNC(=N)N)NC(=O)[C@H](CCCCN)NC1=O
B2: triple agonist of SEQ ID NO: 9 (peptide)
peptide: Y[Aib]QGTFTSDYSK([AEEA-AEEA-γGlu-C18 diacid])YLDEKAAKEFVQWLLDHHPSSGQPPPS-NH2
modifications: lactam 16-20; N-terminus assumed
SMILES: CC(C)C[C@H](NC(=O)[C@H](Cc1ccc(O)cc1)NC(=O)[C@H](CCCCNC(=O)COCCOCCNC(=O)COCCOCCNC(=O)CC[C@H](NC(=O)CCCCCCCCCCCCCCCCC(=O)O)C(=O)O)NC(=O)[C@H](CO)NC(=O)[C@H](Cc1ccc(O)cc1)NC(=O)[C@H](CC(=O)O)NC(=O)[C@H](CO)NC(=O)[C@@H](NC(=O)[C@H](Cc1ccccc1)NC(=O)[C@@H](NC(=O)CNC(=O)[C@H](CCC(N)=O)NC(=O)C(C)(C)NC(=O)[C@@H](N)Cc1ccc(O)cc1)[C@@H](C)O)[C@@H](C)O)C(=O)N[C@@H](CC(=O)O)C(=O)N[C@H]1CCC(=O)NCCCC[C@@H](C(=O)N[C@@H](CCC(=O)O)C(=O)N[C@@H](Cc2ccccc2)C(=O)N[C@H](C(=O)N[C@@H](CCC(N)=O)C(=O)N[C@@H](Cc2c[nH]c3ccccc23)C(=O)N[C@@H](CC(C)C)C(=O)N[C@@H](CC(C)C)C(=O)N[C@@H](CC(=O)O)C(=O)N[C@@H](Cc2c[nH]cn2)C(=O)N[C@@H](Cc2c[nH]cn2)C(=O)N2CCC[C@H]2C(=O)N[C@@H](CO)C(=O)N[C@@H](CO)C(=O)NCC(=O)N[C@@H](CCC(N)=O)C(=O)N2CCC[C@H]2C(=O)N2CCC[C@H]2C(=O)N2CCC[C@H]2C(=O)N[C@@H](CO)C(N)=O)C(C)C)NC(=O)[C@H](C)NC(=O)[C@H](C)NC(=O)[C@H](CCCCN)NC1=O
B3: triple agonist of SEQ ID NO: 3 (peptide)
peptide: Y[Aib]QGTFTSDYSK([AEEA-AEEA-γGlu-C20 diacid])YLDEKAAKDFVQWLLDQHPSSGQPPPS-NH2
modifications: lactam 16-20; N-terminus assumed
SMILES: CC(C)C[C@H](NC(=O)[C@H](Cc1ccc(O)cc1)NC(=O)[C@H](CCCCNC(=O)COCCOCCNC(=O)COCCOCCNC(=O)CC[C@H](NC(=O)CCCCCCCCCCCCCCCCCCC(=O)O)C(=O)O)NC(=O)[C@H](CO)NC(=O)[C@H](Cc1ccc(O)cc1)NC(=O)[C@H](CC(=O)O)NC(=O)[C@H](CO)NC(=O)[C@@H](NC(=O)[C@H](Cc1ccccc1)NC(=O)[C@@H](NC(=O)CNC(=O)[C@H](CCC(N)=O)NC(=O)C(C)(C)NC(=O)[C@@H](N)Cc1ccc(O)cc1)[C@@H](C)O)[C@@H](C)O)C(=O)N[C@@H](CC(=O)O)C(=O)N[C@H]1CCC(=O)NCCCC[C@@H](C(=O)N[C@@H](CC(=O)O)C(=O)N[C@@H](Cc2ccccc2)C(=O)N[C@H](C(=O)N[C@@H](CCC(N)=O)C(=O)N[C@@H](Cc2c[nH]c3ccccc23)C(=O)N[C@@H](CC(C)C)C(=O)N[C@@H](CC(C)C)C(=O)N[C@@H](CC(=O)O)C(=O)N[C@@H](CCC(N)=O)C(=O)N[C@@H](Cc2c[nH]cn2)C(=O)N2CCC[C@H]2C(=O)N[C@@H](CO)C(=O)N[C@@H](CO)C(=O)NCC(=O)N[C@@H](CCC(N)=O)C(=O)N2CCC[C@H]2C(=O)N2CCC[C@H]2C(=O)N2CCC[C@H]2C(=O)N[C@@H](CO)C(N)=O)C(C)C)NC(=O)[C@H](C)NC(=O)[C@H](C)NC(=O)[C@H](CCCCN)NC1=O
B4: triple agonist of SEQ ID NO: 2 (peptide)
peptide: Y[Aib]QGTFTSDYSK([AEEA-AEEA-γGlu-C20 diacid])YLDEKRAKEFVQWLLDHHPSSGQPPPS-NH2
modifications: lactam 16-20; N-terminus assumed
SMILES: CC(C)C[C@H](NC(=O)[C@H](Cc1ccc(O)cc1)NC(=O)[C@H](CCCCNC(=O)COCCOCCNC(=O)COCCOCCNC(=O)CC[C@H](NC(=O)CCCCCCCCCCCCCCCCCCC(=O)O)C(=O)O)NC(=O)[C@H](CO)NC(=O)[C@H](Cc1ccc(O)cc1)NC(=O)[C@H](CC(=O)O)NC(=O)[C@H](CO)NC(=O)[C@@H](NC(=O)[C@H](Cc1ccccc1)NC(=O)[C@@H](NC(=O)CNC(=O)[C@H](CCC(N)=O)NC(=O)C(C)(C)NC(=O)[C@@H](N)Cc1ccc(O)cc1)[C@@H](C)O)[C@@H](C)O)C(=O)N[C@@H](CC(=O)O)C(=O)N[C@H]1CCC(=O)NCCCC[C@@H](C(=O)N[C@@H](CCC(=O)O)C(=O)N[C@@H](Cc2ccccc2)C(=O)N[C@H](C(=O)N[C@@H](CCC(N)=O)C(=O)N[C@@H](Cc2c[nH]c3ccccc23)C(=O)N[C@@H](CC(C)C)C(=O)N[C@@H](CC(C)C)C(=O)N[C@@H](CC(=O)O)C(=O)N[C@@H](Cc2c[nH]cn2)C(=O)N[C@@H](Cc2c[nH]cn2)C(=O)N2CCC[C@H]2C(=O)N[C@@H](CO)C(=O)N[C@@H](CO)C(=O)NCC(=O)N[C@@H](CCC(N)=O)C(=O)N2CCC[C@H]2C(=O)N2CCC[C@H]2C(=O)N2CCC[C@H]2C(=O)N[C@@H](CO)C(N)=O)C(C)C)NC(=O)[C@H](C)NC(=O)[C@H](CCCNC(=N)N)NC(=O)[C@H](CCCCN)NC1=O

biological target: human GCG receptor (human, UniProt P47871 26-477); assay: cell-based or functional assay; details: not given
Sequence (P47871 26-477): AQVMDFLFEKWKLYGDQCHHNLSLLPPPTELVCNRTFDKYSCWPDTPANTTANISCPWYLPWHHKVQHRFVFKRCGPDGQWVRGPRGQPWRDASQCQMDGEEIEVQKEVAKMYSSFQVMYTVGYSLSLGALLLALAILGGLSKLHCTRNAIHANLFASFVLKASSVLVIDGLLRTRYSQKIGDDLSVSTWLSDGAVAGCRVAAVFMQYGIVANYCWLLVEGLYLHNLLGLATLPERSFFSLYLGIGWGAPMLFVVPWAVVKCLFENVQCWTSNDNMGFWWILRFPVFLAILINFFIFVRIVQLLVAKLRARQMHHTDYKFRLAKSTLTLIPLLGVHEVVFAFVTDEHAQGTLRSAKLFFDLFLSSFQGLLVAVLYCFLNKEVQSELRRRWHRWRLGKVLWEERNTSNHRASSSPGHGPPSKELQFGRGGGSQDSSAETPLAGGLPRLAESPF

First: B1
Second: B2
The “In vitro Activity Compared to Native Peptide (%) vs. Glucagon (relative titer from cAMP EC50)” value of the first is higher: 5.89 % of human GCG for the first, 0.51 % of human GCG for the second.

First: B3
Second: B4
The “In vitro Activity Compared to Native Peptide (%) vs. Glucagon (relative titer from cAMP EC50)” value of the first is lower: 0.4 % of human GCG for the first, 3.35 % of human GCG for the second.

biological target: T1, human GIP receptor; assay: cell-based or functional assay; details: not given

Going from B1 to B2, the “In vitro Activity Compared to Native Peptide (%) vs. GIP (relative titer from cAMP EC50)” value rises from 4.89 % of human GIP to 8.42 % of human GIP.

Compared with B3, B4 is lower in “In vitro Activity Compared to Native Peptide (%) vs. GIP (relative titer from cAMP EC50)” value: 7.04 % of human GIP for the first, 2.17 % of human GIP for the second.

biological target: human GLP-1 receptor (human, UniProt P43220 24-463); assay: cell-based or functional assay; details: not given

Compared with B1, B2 is higher in “In vitro Activity Compared to Native Peptide (%) vs. GLP-1 (relative titer from cAMP EC50)” value: 9.68 % of human GLP-1 for the first, 15 % of human GLP-1 for the second.

Compared with B3, B4 is lower in “In vitro Activity Compared to Native Peptide (%) vs. GLP-1 (relative titer from cAMP EC50)” value: 5.52 % of human GLP-1 for the first, 3.87 % of human GLP-1 for the second.

system: not listed separately; assay: Weight loss effect in AMLN diet-induced obese mice; format: in vivo; details: 351 ug/kg, Q2D, subcutaneously, 2 weeks, vs. excipient control, p<0.001 one-way ANOVA, FIG. 1
Description: In order to confirm the weight loss effect of each of the three triple agonists of SEQ ID NO: 1, SEQ ID NO: 2, and SEQ ID NO: 4 prepared in the Example above, an AMLN (amylin) mouse model, known as an obesity model, was used. AMLN diet-induced mice were divided into an excipient control group and groups administered with three types of triple agonists (351 ug/kg, Q2D, subcutaneously), and the administration was repeated for 2 weeks.
After repeated administration for 2 weeks, the body weight was measured, and the change in body weight relative to the body weight immediately before administration (DO) was measured to evaluate weight loss effect.

For “Y-Aib-QGTFTSDYSK(1)YLDEKAAKEFVQWLLDHHPSSGQPPPS (Y[Aib]QGTFTSDYSK([AEEA-AEEA-γGlu-C20 diacid])YLDEKAAKEFVQWLLDHHPSSGQPPPS-NH2; lactam 16-20; N-terminus assumed; SMILES CC(C)C[C@H](NC(=O)[C@H](Cc1ccc(O)cc1)NC(=O)[C@H](CCCCNC(=O)COCCOCCNC(=O)COCCOCCNC(=O)CC[C@H](NC(=O)CCCCCCCCCCCCCCCCCCC(=O)O)C(=O)O)NC(=O)[C@H](CO)NC(=O)[C@H](Cc1ccc(O)cc1)NC(=O)[C@H](CC(=O)O)NC(=O)[C@H](CO)NC(=O)[C@@H](NC(=O)[C@H](Cc1ccccc1)NC(=O)[C@@H](NC(=O)CNC(=O)[C@H](CCC(N)=O)NC(=O)C(C)(C)NC(=O)[C@@H](N)Cc1ccc(O)cc1)[C@@H](C)O)[C@@H](C)O)C(=O)N[C@@H](CC(=O)O)C(=O)N[C@H]1CCC(=O)NCCCC[C@@H](C(=O)N[C@@H](CCC(=O)O)C(=O)N[C@@H](Cc2ccccc2)C(=O)N[C@H](C(=O)N[C@@H](CCC(N)=O)C(=O)N[C@@H](Cc2c[nH]c3ccccc23)C(=O)N[C@@H](CC(C)C)C(=O)N[C@@H](CC(C)C)C(=O)N[C@@H](CC(=O)O)C(=O)N[C@@H](Cc2c[nH]cn2)C(=O)N[C@@H](Cc2c[nH]cn2)C(=O)N2CCC[C@H]2C(=O)N[C@@H](CO)C(=O)N[C@@H](CO)C(=O)NCC(=O)N[C@@H](CCC(N)=O)C(=O)N2CCC[C@H]2C(=O)N2CCC[C@H]2C(=O)N2CCC[C@H]2C(=O)N[C@@H](CO)C(N)=O)C(C)C)NC(=O)[C@H](C)NC(=O)[C@H](C)NC(=O)[C@H](CCCCN)NC1=O) [SEQ ID NO: 1, acylated triple agonist peptide, K(1) at position 12, lactam bridge E16-K20, C-terminus amidated]”, the “weight loss efficacy (change in body weight relative to immediately before administration)” value was “significant weight loss efficacy”.
